Assay results taken from patent US11459387B2, “Anti-CD147 antibody” (DAIICHI SANKYO COMPANY, LIMITED, priority 2017, dated 2022).

Tests used:
[1] = test system: human liver cell line HepG2; test: HepG2 liver cancer model in NOD-scid mice; assay type: in vivo; conditions: qD1x9 po, n=5; for Average tumor volume: NOD-scid mice
Procedure: 5×10^6 cells of the human liver cell line HepG2 were suspended in PBS containing 50% Matrigel (Corning Inc., Cat. 354234), and the suspension was inoculated subcutaneously into the axilla of 4 week-old female NOD-scid mice (NOD. CB17-Prkdc/J, purchased from CHARLES RIVER LABORATORIES JAPAN, INC). […] As a control drug, sorafenib (Nexavar tablets 200 mg, Bayer AG), which is a therapeutic agent for liver cancer, was dissolved in a PEG-35 castor oil (Cremophor EL, NACALAI TESQUE, INC., Cat. 09727-14) ethanol solvent according to the reference (Chang et. al., Cancer Chem. Thera. Pharm., 2007) attached to Nexavar tablets, and the solution was orally administered to cancer-bearing mice at 30 mg/kg or 90 mg/kg 9, 10, 11, 12, 13, 16, 17, and 18 days after the inoculation (n=5). The major axis and the minor axis of the inoculated tumor were measured twice a week using an electronic digital caliper (available from MITUTOYO CORPORATION) to calculate the tumor volume by the following formula. Tumor volume (mm^3)=½×minor axis (mm)×minor axis (mm)×major axis (mm)

[2] = test system: human peripheral blood mononuclear cells; test: Cytokine release assay using human peripheral blood; assay type: cell-based; conditions: 6 donors
Source text: In some antibodies such as OKT3 and TGN1412, administration of the therapeutic antibodies causes an increase in cytokines in the blood by activating immune cells, thereby causing serious cytokine release syndrome (Gaston, R., Kidney International, 1991, 141-148; Suntharalingam, G., et al., N. Engl. J. Med. 2006, 1018-1028). It has been reported that some CD147 antibodies act on immune cells, having an action of increasing production of interferon gamma or interleukin-4 (Hu, J., et al., J. Cell. Mol. Med., 2010, 2132-2143). The toxicity of antibody drugs due to cytokine release syndrome can be predicted by a cytokine release assay using peripheral blood (Vessillier, S. et al., J. Immunolol. Methods, 2015, 43-52).

[3] = test system: human pancreatic line MIA PaCa-2; test: ADCC activity, 51Cr release, human PBMC effector cells; assay type: cell-based; conditions: antibody 0.5 or 5 μg/ml; MIA PaCa-2 target cells
Procedure: Antibody-dependent cellular cytotoxicity (ADCC) activity can be measured by a ^51Cr release assay method, which measures cell death caused when immune cells having effector activity, an antibody and ^51Cr-labeled target cells are brought into contact. The ADCC activity of the anti-human CD147 antibody of the present invention is measured as follows. Regarding the ADCC activity of the anti-human CD147 antibody, human peripheral blood mononuclear cells (PBMC) are used as effector cells, and a CD147-positive human cancer cell line (for example, pancreatic cancer cell line MIA PaCa-2) is used as ADCC target cells. Cancer cells labeled with a radioisotope, ^51Cr, and the antibody to be evaluated are treated at a concentration of 0.5 or 5 μg/ml at 4° C. for 30 minutes, PBMC separated from human peripheral blood is added at 20 times the proportion of cancer cells, and then cells are cultured for 4 hours at 37° C. in the presence of 5% CO2. […] The measured value of ^51Cr released from ^51Cr-labeled cancer cells treated with Triton-100 is designated as a “Maximum release value” and the measured value of ^51Cr released from ^51Cr-labeled cancer cells treated with antibody in the absence of PBMC is designated as a “Spontaneous release value”. With these values, % Specific release is calculated from the following formula. […]

[4] = test system: human pancreatic line MIA PaCa-2; test: CDC activity with rabbit complement, CellTiter-Glo; assay type: cell-based; conditions: antibody 10 μg/ml; rabbit complement 7.5%; 3 hours
Procedure: Complement-dependent cytotoxicity (CDC) activity can be evaluated by measuring cell death caused when complement contained in blood, an antibody and target cells are brought into contact. The CDC activity of the anti-human CD147 antibody of the present invention is measured as follows. The complement-dependent cytotoxicity activity (CDC activity) of the anti-human CD147 antibody is evaluated using human pancreatic cell line MIA PaCa-2 as target cells. Commercially available rabbit complement (Low Tox-M Rabbit Complement, […] LABORATORIES LIMITED, Cat. CL3051) is used as the complement. […] Target cells are treated with the antibody to be evaluated and the negative control antibody at concentrations of 0, 0.1, 1 or 10 μg/ml for 1 hour at 4° C., the rabbit complement is added in such a manner that the final concentration is 7.5%, the resultant mixture is heated at 37° C. in the presence of 5% CO2 for 3 hours, and then intracellular ATP contained in living cells is measured using the CellTiter-Glo Lumimescent Cell Viability Assay (Promega, Cat. G7572). Luminescent signals obtained using the CellTiter-Glo Lumimescent Cell Viability Assay are quantitatively determined using an EnVision 2104 Multilabel Reader (Perkin Elmer). The measurement is performed three times and the average value and the standard deviation are calculated. […]

[5] = test system: human pancreatic line BxPC-3; test: SMAD4-negative BxPC-3 pancreatic cancer-bearing model in BALB/c-nu mice; assay type: in vivo; conditions: antibody 10 mg/kg ip 8, 15 and 22 days after the inoculation; BALB/c-nu mice
Source text: The transcription factor, SMAD4, is known as one of the molecules important for activation of SMAD signaling (Zang, et al., Current Biology, 270-276, 1997). It is known that SMAD signaling is partially impaired due to genetic defects of SMAD4 in some pancreatic cancers (Hahn, et al., Science, 350-353, 1996). […] 2.5×10^6 cells of human pancreatic line BxPC-3 (ATCC, Cat. CRL-1687) were suspended in PBS containing […] (Corning Inc., Cat. 354234), and the suspension was inoculated subcutaneously into the axilla of 6 week-old female BALB/c-nu mouse (CAnN. Cg-Foxn1nu/CrlCrlj, purchased from CHARLES RIVER LABORATORIES JAPAN, INC). […] As a control drug, gemcitabine (Eli Lilly Japan K.K., Gemzar®) that is a therapeutic agent for pancreatic cancer was administered to mice bearing tumor via the tail vein at 200 mg/kg 8, 15, 22 days after the inoculation (n=5). The major axis and the minor axis of the inoculated tumor were measured twice a week using an electronic digital caliper (available from MITUTOYO CORPORATION) to calculate the tumor volume by the following formula. Tumor volume (mm^3)=½×minor axis (mm)×minor axis (mm)×major axis (mm)

[6] = test system: human pancreatic line PANC-1; test: Antibody screening by in-vivo antitumor efficacy, PANC-1 xenograft in NOD-scid mice
Procedure: 1×10^7 cells of human pancreatic line PANC-1 were suspended in PBS, and the suspension was inoculated subcutaneously into the axilla of NOD-scid mice (CHARLES RIVER LABORATORIES JAPAN, INC., NOD. CB17-Prkdc/J). […] The major axis and the minor axis of the inoculated tumor were measured twice a week using an electronic digital caliper (available from MITUTOYO CORPORATION) to calculate the tumor volume by the following formula. Tumor volume (mm^3)=½×minor axis (mm)×minor axis (mm)×major axis (mm)

In the case of `CNC(=O)c1cc(Oc2ccc(NC(=O)Nc3ccc(Cl)c(C(F)(F)F)c3)cc2)ccn1` [Sorafenib, sorafenib, reference compound], the “Number of examples of complete tumor regression” value ([1]; 30 mg/kg) is reported as 0/5, the “tumor growth inhibition rate” value ([1]; 30 mg/kg) is reported as 18% and the Average tumor volume ([1]; 30 mg/kg) is reported as 1425 mm^3. The “Number of examples of complete tumor regression” value ([1]; 90 mg/kg) was 0/5, the “tumor growth inhibition rate” value ([1]; 90 mg/kg) was 28% and the Average tumor volume ([1]; 90 mg/kg) was 1252 mm^3.

With “anti-human CD3 antibody (OKT3): comparative antibody in the cytokine release assay (BioLegend Cat. No317326) [reference compound]” the “acceleration of cell growth in human peripheral blood mononuclear cells” value [2] was “acceleration of cell growth” and the “cytokine release (TNFα, INF-γ, IL-2, IL-6, IL-8, IL-10, MIP-1α)” value ([2]; human peripheral blood) was “acceleration of cytokine release”.

B1: LN22R8: mouse anti-human CD147 monoclonal antibody, Mouse IgG3; light chain variable region SEQ ID NO: 8, heavy chain variable region SEQ ID NO: 10 (antibody, listed as Mus musculus, V domains shown)
VH: QIQLVQSGPELKKPGETVKISCKASGYTFTNYGMNWVKQAPGKGLKWMGWINTYTGEPTYADDFKGRFAFSLETSASTAYLQINNLKNEDTATYFCARGGYGNYGAGAMDYWGQGTSVTVSS
VL: DIQMTQSPSSLSASLGERVSLTCRASLEISGFLSWLQQKPDGTIKRLIYAASILDSGVPKRFSGSRSGSDYSLTISSLESEDFADYYCLQYASYPWTFGGGTKLEIKR
In the case of B1, the “ADCC activity (in words)” value [3] is reported as “no ADCC activity”, the “living cells (CDC activity, luminescence of non-treated cells = 100%)” value [4] is reported as 41.1% and the “sensitivity of BxPC-3 tumor (in words)” value [5] is reported as “resistant”. The “tumor growth inhibition rate” value ([6]; 10 mg/kg ip administration group, 48th day after the inoculation (final measurement date), NOD-scid mice) was 50% and the “in vivo anti-tumor effect” value ([6]; antitumor efficacy of Example 1)-7 (PANC-1 xenograft, 10 mg/kg) as listed in Table 3) was 50%.
